{
  "source": "paper PMC12175502",
  "about": "“7β-Hydroxysteroid dehydratase Hsh3 eliminates the 7-hydroxy group of the bile salt ursodeoxycholate during degradation by Sphingobium sp. strain Chol11 and other Sphingomonadaceae” (Applied and Environmental Microbiology, 2025)",
  "key": {"Hsh2": {"tested_on": "T1, Hsh2", "T1 construct": "tag not reported cut", "assay": "continuous spectrophotometric assay at […] nm", "assay_type": "biochemical, Sphingobium sp. Chol11", "conditions": "50 mM MOPS pH 7.8, 30 °C, 25% ethanol; dehydration; substrate range 50 µM to 1 mM"}, "[1]": {"tested_on": "T2, C[C@]12C=CC(=O)C=C1C[C@H](O)[C@@H]1[C@@H]2CC[C@]2(C)C(=O)CC[C@@H]12", "T2 construct": "His-tagged, pET28b(+), E. coli Tuner(DE3), Ni-NTA and desalting gel filtration; tag not reported cut; primers read start MEKLICAL and end AHLDGK before vector C-terminal tag", "assay": "purified protein", "assay_type": "biochemical, Sphingobium sp. Chol11", "conditions": "50 mM MOPS pH 7.8, 30 °C, 25% ethanol, dehydration, substrate range 50 µM to 1 mM"}},
  "data": [
    {"molecule": "C[C@]12C=CC(=O)C=C1C[C@@H](O)[C@@H]1[C@@H]2CC[C@]2(C)C(=O)CC[C@@H]12", "note": "[XI, 7α-hydroxy-androsta-1,4-diene-3,17-dione]", "values": [
      {"measurement": "Km", "setting": "Hsh2", "result": "250 ± 50", "unit": "µM"}
    ]},
    {"molecule": "Hsh3 (Nov2c681) (Sphingobium sp.)", "values": [
      {"measurement": "Km", "setting": "[1]", "result": "1.26 ± 0.45", "unit": "mM"},
      {"measurement": "kcat", "setting": "[1]", "result": "130 ± 30.1", "unit": "s⁻¹"},
      {"measurement": "kcat/Km", "setting": "[1]", "result": 103000, "unit": "M⁻¹ s⁻¹"}
    ]}
  ]
}
